Reference: patent publication US20230038761, “REGULATION OF VON WILLEBRAND FACTOR (VWF)” (BAND THERAPEUTICS, LLC, published 2023)

Columns and labels:
[1] = target: T1, von Willebrand factor (VWF) (Homo sapiens, UniProt P04275 SEQ:764-2813); test: ELISA with anti-PEG detection; dPBS, 37 C, 2 h
Procedure: (§1) The affinity of BT200, with or without pre-incubation with BT101, for purified human VWF was evaluated using an enzyme-linked immunosorbent assay (ELISA) method. In this study, purified human VWF protein was dissolved in Dulbecco's phosphate buffered saline (dPBS) buffer at a concentration of 10 μg/mL and 100 μL of this solution was added to each well of a Nunc Maxisorp 96-well plate. The plate was incubated overnight at 4° C. The following day, the plate was washed 3 times, followed by blocking with 5% bovine serum albumin (BSA) in dPBS at room temperature for 90 minutes. The blocked plate was then washed 3 times before adding either BT200 at concentrations of 0.3, 1, 3, 10, 30, 100, 300, 1000, 3000, and 10000 nM or a pre-incubated 1:1 molar ratio of BT101:BT200 at the same concentrations. BT101 and BT200 were mixed and incubated at 37° C. for 30 minutes prior to addition to the plate.
(§2) Plates were then incubated at 37° C. for 2 hours. Each plate was then washed 3 times and 100 μL of anti-PEG antibody at 1 μg/mL in 1% BSA/dPBS was added to each well and incubated for 1 hour at room temperature. […] To stop the reaction, 100 μL of 2 N H₂SO₄ was added to each well and the plate was then read at 450 nm for absorbance and the mean absorbance under each set of conditions was recorded.

[2] = target: T1, von Willebrand factor (VWF); test: ELISA; no OD increase up to 10 uM BT200 after pre-incubation with BT101 at 1:1; dPBS, 37 C
Procedure: as §1, §2

T1 sequence (P04275 764-2813 Q852R): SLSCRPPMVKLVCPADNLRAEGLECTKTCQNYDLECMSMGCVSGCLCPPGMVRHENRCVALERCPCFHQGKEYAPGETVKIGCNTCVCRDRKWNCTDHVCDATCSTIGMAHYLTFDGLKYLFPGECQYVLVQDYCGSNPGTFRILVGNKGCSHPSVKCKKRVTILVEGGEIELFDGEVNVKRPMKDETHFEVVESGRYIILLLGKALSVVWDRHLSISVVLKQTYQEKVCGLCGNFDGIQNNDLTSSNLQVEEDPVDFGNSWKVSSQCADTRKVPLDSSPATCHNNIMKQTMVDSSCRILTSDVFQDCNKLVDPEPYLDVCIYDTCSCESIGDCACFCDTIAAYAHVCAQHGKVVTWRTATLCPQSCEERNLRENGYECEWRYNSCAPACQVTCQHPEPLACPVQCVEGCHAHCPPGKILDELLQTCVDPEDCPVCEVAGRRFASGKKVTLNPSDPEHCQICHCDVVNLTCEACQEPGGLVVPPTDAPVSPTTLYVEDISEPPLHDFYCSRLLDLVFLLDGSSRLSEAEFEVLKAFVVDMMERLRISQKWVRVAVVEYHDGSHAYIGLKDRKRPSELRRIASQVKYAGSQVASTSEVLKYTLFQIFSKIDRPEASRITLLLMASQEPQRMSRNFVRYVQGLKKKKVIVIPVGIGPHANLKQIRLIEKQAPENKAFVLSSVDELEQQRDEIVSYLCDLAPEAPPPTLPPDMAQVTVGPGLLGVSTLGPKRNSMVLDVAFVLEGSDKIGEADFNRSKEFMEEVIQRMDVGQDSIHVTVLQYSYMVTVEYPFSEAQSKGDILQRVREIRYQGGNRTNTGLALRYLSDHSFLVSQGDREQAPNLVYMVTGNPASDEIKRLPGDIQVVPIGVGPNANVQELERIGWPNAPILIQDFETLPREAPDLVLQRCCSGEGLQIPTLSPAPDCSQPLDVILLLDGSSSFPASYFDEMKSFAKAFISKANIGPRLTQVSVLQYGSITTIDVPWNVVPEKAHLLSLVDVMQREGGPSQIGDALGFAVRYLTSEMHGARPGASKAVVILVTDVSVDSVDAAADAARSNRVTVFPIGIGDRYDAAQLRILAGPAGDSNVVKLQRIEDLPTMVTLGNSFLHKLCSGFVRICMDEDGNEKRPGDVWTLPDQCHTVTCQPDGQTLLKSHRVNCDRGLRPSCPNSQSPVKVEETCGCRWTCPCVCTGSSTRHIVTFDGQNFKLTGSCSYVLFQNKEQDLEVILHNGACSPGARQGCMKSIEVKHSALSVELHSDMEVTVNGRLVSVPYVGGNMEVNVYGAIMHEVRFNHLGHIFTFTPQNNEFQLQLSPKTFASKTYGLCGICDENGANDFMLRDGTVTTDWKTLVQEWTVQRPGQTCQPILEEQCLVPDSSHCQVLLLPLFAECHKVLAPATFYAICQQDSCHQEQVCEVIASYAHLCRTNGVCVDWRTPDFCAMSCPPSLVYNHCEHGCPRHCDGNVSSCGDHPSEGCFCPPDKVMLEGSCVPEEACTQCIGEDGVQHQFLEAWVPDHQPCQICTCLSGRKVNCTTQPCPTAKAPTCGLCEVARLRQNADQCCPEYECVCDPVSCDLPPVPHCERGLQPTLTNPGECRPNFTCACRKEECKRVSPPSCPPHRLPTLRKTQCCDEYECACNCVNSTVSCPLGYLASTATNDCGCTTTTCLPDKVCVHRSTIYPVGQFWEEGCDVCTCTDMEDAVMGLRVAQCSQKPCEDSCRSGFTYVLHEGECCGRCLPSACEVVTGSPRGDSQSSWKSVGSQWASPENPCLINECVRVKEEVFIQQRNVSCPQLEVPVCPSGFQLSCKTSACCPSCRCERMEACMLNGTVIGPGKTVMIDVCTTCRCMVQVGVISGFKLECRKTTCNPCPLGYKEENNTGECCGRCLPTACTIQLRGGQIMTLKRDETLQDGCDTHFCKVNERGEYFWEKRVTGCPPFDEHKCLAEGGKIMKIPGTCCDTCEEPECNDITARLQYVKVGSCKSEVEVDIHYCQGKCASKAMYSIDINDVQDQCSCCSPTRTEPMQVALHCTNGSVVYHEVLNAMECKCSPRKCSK

GCCAGGGACCUAAGACACAUGUCCCUGGC (ssRNA, all residues 2'-OMe; 5' PEG40K-NH; 3' idT (final t of SEQ 6)) [BT200]
EC50 [1]: 331 nM

B1: BT200/BT101 duplex (dsRNA)
RNA 1: GCCAGGGACCUAAGACACAUGUCCCUGGC
RNA 2: ACAUGUGUCUUAGGUCCCUGGCT
modifications: all residues 2'-OMe in both strands; BT200 5' PEG40K-NH; 3' idT on both strands
binding result [2]: no binding
